# T1: Plasmodium falciparum Hsp70-Hsp90 organising protein (PfHop) (Plasmodium falciparum), Q8ILC1
# T1 chain: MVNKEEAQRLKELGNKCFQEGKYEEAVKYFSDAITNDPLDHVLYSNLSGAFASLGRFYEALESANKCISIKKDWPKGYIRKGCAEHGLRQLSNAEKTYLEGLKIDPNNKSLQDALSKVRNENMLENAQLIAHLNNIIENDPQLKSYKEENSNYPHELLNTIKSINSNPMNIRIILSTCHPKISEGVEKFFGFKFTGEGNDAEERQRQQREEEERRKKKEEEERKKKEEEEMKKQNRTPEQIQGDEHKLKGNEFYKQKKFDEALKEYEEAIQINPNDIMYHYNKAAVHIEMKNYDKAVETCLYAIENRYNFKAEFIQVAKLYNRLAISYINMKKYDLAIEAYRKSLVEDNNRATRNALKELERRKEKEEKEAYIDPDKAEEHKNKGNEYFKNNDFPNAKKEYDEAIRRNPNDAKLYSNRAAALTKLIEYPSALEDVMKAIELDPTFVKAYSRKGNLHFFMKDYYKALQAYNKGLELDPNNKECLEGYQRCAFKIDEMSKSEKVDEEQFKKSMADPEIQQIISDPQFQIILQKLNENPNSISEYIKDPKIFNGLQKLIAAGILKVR
# B1: Plasmodium falciparum Hsp70-Hsp90 organising protein (PfHop), Q8ILC1 1-564 (natural protein)
# chain: MVNKEEAQRLKELGNKCFQEGKYEEAVKYFSDAITNDPLDHVLYSNLSGAFASLGRFYEALESANKCISIKKDWPKGYIRKGCAEHGLRQLSNAEKTYLEGLKIDPNNKSLQDALSKVRNENMLENAQLIAHLNNIIENDPQLKSYKEENSNYPHELLNTIKSINSNPMNIRIILSTCHPKISEGVEKFFGFKFTGEGNDAEERQRQQREEEERRKKKEEEERKKKEEEEMKKQNRTPEQIQGDEHKLKGNEFYKQKKFDEALKEYEEAIQINPNDIMYHYNKAAVHIEMKNYDKAVETCLYAIENRYNFKAEFIQVAKLYNRLAISYINMKKYDLAIEAYRKSLVEDNNRATRNALKELERRKEKEEKEAYIDPDKAEEHKNKGNEYFKNNDFPNAKKEYDEAIRRNPNDAKLYSNRAAALTKLIEYPSALEDVMKAIELDPTFVKAYSRKGNLHFFMKDYYKALQAYNKGLELDPNNKECLEGYQRCAFKIDEMSKSEKVDEEQFKKSMADPEIQQIISDPQFQIILQKLNENPNSISEYIKDPKIFNGLQKLIAAGILKVR
# B2: Plasmodium falciparum Hsp70-Hsp90 organising protein (PfHop), recombinant, his-tagged (natural protein, UniProt Q8ILC1 1-564, looked up)
# chain: MVNKEEAQRLKELGNKCFQEGKYEEAVKYFSDAITNDPLDHVLYSNLSGAFASLGRFYEALESANKCISIKKDWPKGYIRKGCAEHGLRQLSNAEKTYLEGLKIDPNNKSLQDALSKVRNENMLENAQLIAHLNNIIENDPQLKSYKEENSNYPHELLNTIKSINSNPMNIRIILSTCHPKISEGVEKFFGFKFTGEGNDAEERQRQQREEEERRKKKEEEERKKKEEEEMKKQNRTPEQIQGDEHKLKGNEFYKQKKFDEALKEYEEAIQINPNDIMYHYNKAAVHIEMKNYDKAVETCLYAIENRYNFKAEFIQVAKLYNRLAISYINMKKYDLAIEAYRKSLVEDNNRATRNALKELERRKEKEEKEAYIDPDKAEEHKNKGNEYFKNNDFPNAKKEYDEAIRRNPNDAKLYSNRAAALTKLIEYPSALEDVMKAIELDPTFVKAYSRKGNLHFFMKDYYKALQAYNKGLELDPNNKECLEGYQRCAFKIDEMSKSEKVDEEQFKKSMADPEIQQIISDPQFQIILQKLNENPNSISEYIKDPKIFNGLQKLIAAGILKVR
# What was measured:
# [1] = target: T1, Plasmodium falciparum Hsp70-Hsp90 …; assay: SPR; ProteOn XPR36, GLC chip; PfHop immobilised by amine coupling, PfHop as analyte (125-2000 nM); self-association, step not told; 25 C; PBS-Tween with 20 mM EDTA, pH 7.4; with 5 mM ADP; conditions: remark: other sources report otherwise
# [2] = target: T1, Plasmodium falciparum Hsp70-Hsp90 …; assay: SPR; ProteOn XPR36, GLC chip; PfHop immobilised by amine coupling, PfHop as analyte (125-2000 nM); self-association, step not told; 25 C; PBS-Tween with 20 mM EDTA, pH 7.4; no nucleotide; conditions: remark: other sources report otherwise
# [3] = target: T1, Plasmodium falciparum Hsp70-Hsp90 …; assay: SPR; ProteOn XPR36, GLC chip; PfHop immobilised by amine coupling, PfHop as analyte (125-2000 nM); self-association, step not told; 25 C; PBS-Tween with 20 mM EDTA, pH 7.4; with 5 mM ATP; conditions: remark: other sources report otherwise
# [4] = target: Plasmodium falciparum Hsp70 (PfHsp70-1), full length, recombinant, his-tagged (Plasmodium falciparum, UniProt Q8IB24 1-677); assay: far-Western, overlay or dot blot; PfHsp70-1 (25, 37.5, 50 μg/mL) resolved by SDS-PAGE, blotted, denatured and renatured with urea (8 M-0 M); overlaid with PfHop in protein-binding buffer (100 mM NaCl, 20 mM Tris pH 7.6, 0.5 mM EDTA, 10% glycerol, 0.1% Tween-20, 2% skim milk, 1 mM DTT) overnight at 4°C; no nucleotide, 5 μM ADP or 5 μM ATP; detected with α-PfHop; conditions: both partners purified
Binder,Kd [1],koff [1],kon [1],Kd [2],koff [2],kon [2],Kd [3],koff [3],kon [3],binding result [4]
B1,7.85 nM,0.000464 s⁻¹,59100 M⁻¹ s⁻¹,1.57 nM,0.000359 s⁻¹,228000 M⁻¹ s⁻¹,5.18 nM,0.000329 s⁻¹,63500 M⁻¹ s⁻¹,
B2,,,,,,,,,,binds
